{
  "source": "IntAct's records for PubMed 31515488",
  "parents": {"B1": {"name": "Transcription factor 12 (Homo sapiens), Q99081-3 (parent)", "chain": "MNPQQQRMAAIGTDKELSDLLDFSAMFSPPVNSGKTRPTTLGSSQFSGSGIDERGGTTSWGTSGQPSPSYDSSRGFTDSPHYSDHLNDSRLGAHEGLSPTPFMNSNLMGKTSERGSFSLYSRDTGLPGCQSSLLRQDLGLGSPAQLSSSGKPGTAYYSFSATSSRRRPLHDSAALDPLQAKKVRKVPPGLPSSVYAPSPNSDDFNRESPSYPSPKPPTSMFASTFFMQDGTHNSSDLWSSSNGMSQPGFGGILGTSTSHMSQSSSYGNLHSHDRLSYPPHSVSPTDINTSLPPMSSFHRGSTSSSPYVAASHTPPINGSDSILGTRGNAAGSSQTGDALGKALASIYSPDHTSSSFPSNPSTPVGSPSPLTGTSQWPRPGGQAPSSPSYENSLHSLKNRVEQQLHEHLQDAMSFLKDVCEQSRMEDRLDRLDDAIHVLRNHAVGPSTSLPAGHSDIHSLLGPSHNAPIGSLNSNYGGSSLVASSRSASMVGTHREDSVSLNGNHSVLSSTVTTSSTDLNHKTQENYRGGLQSQSGTVVTTEIKTENKEKDENLHEPPSSDDMKSDDESSQKDIKVSSRGRTSSTNEDEDLNPEQKIEREKERRMANNARERLRVRDINEAFKELGRMCQLHLKSEKPQTKLLILHQAVAVILSLEQQVRERNLNPKAACLKRREEEKVSAVSAEPPTTLPGTHPGLSETTNPMGHM", "partner": "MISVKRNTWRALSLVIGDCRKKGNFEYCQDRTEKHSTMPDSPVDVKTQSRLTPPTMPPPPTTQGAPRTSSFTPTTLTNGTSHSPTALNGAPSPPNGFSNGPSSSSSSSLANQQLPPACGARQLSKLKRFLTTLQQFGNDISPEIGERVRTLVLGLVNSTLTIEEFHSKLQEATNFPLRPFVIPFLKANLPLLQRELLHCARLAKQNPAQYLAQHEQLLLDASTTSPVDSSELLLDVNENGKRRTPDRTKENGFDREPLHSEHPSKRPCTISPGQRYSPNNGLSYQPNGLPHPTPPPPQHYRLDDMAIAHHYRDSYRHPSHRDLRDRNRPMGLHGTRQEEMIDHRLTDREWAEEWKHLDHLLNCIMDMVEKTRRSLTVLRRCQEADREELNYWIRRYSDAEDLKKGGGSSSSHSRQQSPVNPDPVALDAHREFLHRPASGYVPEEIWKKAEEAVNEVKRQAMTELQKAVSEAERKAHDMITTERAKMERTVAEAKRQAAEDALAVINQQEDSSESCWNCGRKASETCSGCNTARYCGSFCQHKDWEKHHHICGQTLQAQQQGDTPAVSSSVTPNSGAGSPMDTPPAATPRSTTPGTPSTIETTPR"}, "B2": {"name": "U3 small nucleolar RNA-associated protein 14 homolog C (Homo sapiens), Q5TAP6 (parent)", "chain": "MNVNQVAENLALSHQEELVDLPKNYPLSENEDEGDSDGERKHQKLLEAIISLDGKNRRKLAERSEASLKVSEFSVSSEGSGEKLGLADLLEPVKTSSSLATVKKQLNRVKSKKVVELPLNKEKIEQIHREVAFSKTSQVLSKWDPIILKNQQAEQLVFPLGKEQPAIAPIEHALSGWKARTPLEQEIFNLLHKNKQPVTDPLLTPMEKASLQAMSLEEAKMHRAELQRARALQSYYEAKARKEKKIKSKKYHKVVKKGKAKKALKEFEQLQKVNPTVALEEMEKIENARMMERMSLKHQNSGKWAKSKAIMAKYDLEARQAMQEQLAKNKELTQKLQVASESEEEEGGTEVEELLVPHVANEVQMNVDGPNPWMFRSCTSDTKEAATQEDPEQVPELAAHEVSASEAEERPVAEEEILLREFEERQSLRKRSELNQDAEPASSQETKDSSSQEVLSELRALSQKLKEKHQSRKQKASSEGTVPQVQREEPAPEEAEPLLLQRSERVQTLEELEELGKEDCFQNKELPRPVLEGQQSERTPNNRPDAPKEKKEKEQLINLQNFLTTQSPSVRSLAVPTIIEELEDEEERDQRQMIKEAFAGDDVIRDFLKEKREAVEASKPKDVDLTLPGWGEWGGVGLKPSAKKRRQFLIKAPEGPPRKDKNLPNVIISEKRNIHAAAHQVQVLPYPFTHHRQFERTIQTPIGSTWNTQRAFQKLTTPKVVTKPGHIIKPIKAEDVGYQSSSRSDLPVIQRNPKRITTRHNKEEKL", "partner": "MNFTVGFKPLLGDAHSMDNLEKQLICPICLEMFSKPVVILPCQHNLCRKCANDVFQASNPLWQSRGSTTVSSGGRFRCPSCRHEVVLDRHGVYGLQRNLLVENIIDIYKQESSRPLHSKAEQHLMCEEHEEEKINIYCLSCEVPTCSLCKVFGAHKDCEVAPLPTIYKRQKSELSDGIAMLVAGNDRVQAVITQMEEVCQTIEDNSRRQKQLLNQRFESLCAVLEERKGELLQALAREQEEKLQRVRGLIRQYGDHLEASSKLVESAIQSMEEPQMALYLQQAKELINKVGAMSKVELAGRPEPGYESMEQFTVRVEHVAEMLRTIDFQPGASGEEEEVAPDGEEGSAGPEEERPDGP"}, "B3": {"name": "Isoform 1 of Destrin (Homo sapiens), P60981-1 (parent)", "chain": "MASGVQVADEVCRIFYDMKVRKCSTPEEIKKRKKAVIFCLSADKKCIIVEEGKEILVGDVGVTITDPFKHFVGMLPEKDCRYALYDASFETKESRKEELMFFLWAPELAPLKSKMIYASSKDAIKKKFQGIKHECQANGPEDLNRACIAEKLGGSLIVAFEGCPV"}, "B4": {"name": "Isoform 1 of Equilibrative nucleoside transporter 1 (Homo sapiens), Q99808-1 (parent)", "chain": "MTTSHQPQDRYKAVWLIFFMLGLGTLLPWNFFMTATQYFTNRLDMSQNVSLVTAELSKDAQASAAPAAPLPERNSLSAIFNNVMTLCAMLPLLLFTYLNSFLHQRIPQSVRILGSLVAILLVFLITAILVKVQLDALPFFVITMIKIVLINSFGAILQGSLFGLAGLLPASYTAPIMSGQGLAGFFASVAMICAIASGSELSESAFGYFITACAVIILTIICYLGLPRLEFYRYYQQLKLEGPGEQETKLDLISKGEEPRAGKEESGVSVSNSQPTNESHSIKAILKNISVLAFSVCFIFTITIGMFPAVTVEVKSSIAGSSTWERYFIPVSCFLTFNIFDWLGRSLTAVFMWPGKDSRWLPSLVLARLVFVPLLLLCNIKPRRYLTVVFEHDAWFIFFMAAFAFSNGYLASLCMCFGPKKVKPAEAETAGAIMAFFLCLGLALGAVFSFLFRAIV", "partner": "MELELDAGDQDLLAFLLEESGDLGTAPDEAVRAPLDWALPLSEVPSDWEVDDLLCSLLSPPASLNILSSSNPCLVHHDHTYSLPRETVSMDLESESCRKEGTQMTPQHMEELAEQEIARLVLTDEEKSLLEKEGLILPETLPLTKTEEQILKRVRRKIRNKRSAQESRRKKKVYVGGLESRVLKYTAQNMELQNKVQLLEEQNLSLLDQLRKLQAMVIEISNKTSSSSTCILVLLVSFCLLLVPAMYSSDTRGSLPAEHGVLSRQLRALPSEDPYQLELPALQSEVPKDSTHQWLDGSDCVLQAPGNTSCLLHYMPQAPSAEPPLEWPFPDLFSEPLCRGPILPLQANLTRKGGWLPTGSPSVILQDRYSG"}},
  "data": [
    {"variants_of": "B1", "conditions": "with mtg8_human RUNX1T1, Q06455", "values": [
      {"variant": "N606H", "effect of a mutation on the interaction": "with no effect"}
    ]},
    {"variants_of": "B2", "conditions": "with tri54_human TRIM54, Q9BYV2", "values": [
      {"variant": "V570M", "effect of a mutation on the interaction": "with no effect"},
      {"variant": "K247E", "effect of a mutation on the interaction": "with no effect"},
      {"variant": "R672H", "effect of a mutation on the interaction": "with no effect"},
      {"variant": "I170V", "effect of a mutation on the interaction": "with no effect"},
      {"variant": "V109D", "effect of a mutation on the interaction": "with no effect"},
      {"variant": "A652T", "effect of a mutation on the interaction": "with no effect"},
      {"variant": "T101A", "effect of a mutation on the interaction": "disrupting interaction strength"}
    ]},
    {"variants_of": "B3", "conditions": "with cof2_human CFL2, Q9Y281", "values": [
      {"variant": "G139E", "effect of a mutation on the interaction": "with no effect"}
    ]},
    {"variants_of": "B3", "conditions": "with actb_human ACTB", "values": [
      {"variant": "G139E", "effect of a mutation on the interaction": "with no effect"}
    ]},
    {"variants_of": "B3", "conditions": "with actg_human ACTG1, P63261", "values": [
      {"variant": "G139E", "effect of a mutation on the interaction": "with no effect"}
    ]},
    {"variants_of": "B4", "conditions": "with creb3_human CREB3, O43889", "values": [
      {"variant": "A293T", "effect of a mutation on the interaction": "with no effect"}
    ]}
  ]
}
